{"source": "patent US9241970B2", "about": "“Therapy for subarachnoid hemorrhage and ischemia” (NoNO Inc., priority 2011, dated 2016)", "origin": "cited, not measured here", "biological_target": "binding of NMDAR2B to PSD-95 (Homo sapiens, UniProt P78352)", "sequence (P78352 whole entry)": "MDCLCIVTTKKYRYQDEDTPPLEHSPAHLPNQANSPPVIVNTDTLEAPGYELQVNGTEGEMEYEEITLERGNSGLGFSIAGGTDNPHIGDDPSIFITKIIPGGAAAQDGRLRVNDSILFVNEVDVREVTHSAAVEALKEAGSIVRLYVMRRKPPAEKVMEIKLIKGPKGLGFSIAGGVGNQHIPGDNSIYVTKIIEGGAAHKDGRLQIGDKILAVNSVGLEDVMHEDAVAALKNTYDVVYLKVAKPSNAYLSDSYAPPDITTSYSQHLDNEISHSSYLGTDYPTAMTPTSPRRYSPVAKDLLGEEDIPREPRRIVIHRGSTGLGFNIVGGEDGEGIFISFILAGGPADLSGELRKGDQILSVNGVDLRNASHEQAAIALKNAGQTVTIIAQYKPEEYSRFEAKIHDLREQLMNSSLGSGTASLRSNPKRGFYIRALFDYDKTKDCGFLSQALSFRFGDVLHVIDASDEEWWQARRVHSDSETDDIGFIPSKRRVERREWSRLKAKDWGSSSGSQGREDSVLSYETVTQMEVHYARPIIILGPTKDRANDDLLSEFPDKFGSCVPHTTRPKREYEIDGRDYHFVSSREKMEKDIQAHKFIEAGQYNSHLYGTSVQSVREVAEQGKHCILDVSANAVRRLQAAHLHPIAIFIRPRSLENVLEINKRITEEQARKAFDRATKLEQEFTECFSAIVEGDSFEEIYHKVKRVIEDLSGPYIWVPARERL", "details": "reported by Bach"}
{"substance": "IESDV (listed as Homo sapiens)", "values": [{"measurement": "inhibition of binding of NMDAR2B to PSD-95", "value": "effective in inhibiting binding of NMDAR2B to PSD-95"}]}
